Key:
[1] = Stability of released glucagon (far-UV CD and RP-HPLC); format: physicochemical
Procedure: The effect of glucose concentration on microgel size was characterized using dynamic light scattering (DLS, Malvern Zetasizer Nano-ZS). Adjustment of pH was made using NaOH or HCl. Dimensions and surface morphology of freeze-dried microgels were examined by scanning electron microscopy (SEM/EDX) at an acceleration voltage of 20 kV. Transmission electron microscopy (TEM) images were performed on a Hitachi H-7500 transmission electron microscope operated at 80 kV. In addition, Rhodamine-B (Rh-B) labelling was applied to track the distribution of microgels within the microneedle array. The microgels were first immersed in 10 μg/mL of Rh-B for 12 hours at room temperature and then washed with DI-water three times. […] Glucagon and its degradation products were assayed using a reversed-phase high-performance liquid chromatography (RP-HPLC) system (Waters, MA, USA) equipped with a binary pump, autosampler, and UV detector (2899 Photodiode Detector Array, Waters, MA, USA). ^1H-NMR, and ^11B-NMR spectra were recorded in dimethyl sulfoxide (DMSO) and deuterium oxide (D2O) with a Bruker AM 400 spectrometer (400 MHz). […] Glucagon released from microgels or MNs were collected and measured using a CD spectropolarimeter (Jasco J-810, MD, USA) equipped with a Peltier temperature module set to 25° C. […]

[2] = system: STZ-induced type 1 diabetic male Sprague Dawley rats; experiment: Antidiabetic effect of S.C. microgel injection in type 1 diabetic rats; format: in vivo, rat
Procedure: Male Sprague Dawley rats (Charles River) were treated with 65 mg/kg streptozotocin (STZ) to induce type 1 diabetes. The rats receiving STZ were carefully monitored for 1 week during which time the blood sugar was measured in 2 day intervals using a glucose meter (OneTouch® Ultra®, LifeScan, Inc., USA). Diabetic rats with blood sugar stabilized above 17 mmol/L were selected for the study. All rats were fasted for 4 hours prior to the experiment to eliminate the possible confounding effect of food (BERNICE […], 1965). The blood glucose levels of the diabetic rats were monitored every 15 minutes throughout the experiment. […] The blood glucose levels were measured every 15 min after injection and stopped whenever they were above/bellow euglycemia threshold.

Substance	secondary structure of released glucagon (far-UV CD, peaks at 208 and 222 nm) ([1]; released at 50 mg/dL glucose, compared to fresh native glucagon)	degradation products of released glucagon (RP-HPLC) ([1]; released from composite patch, compared to fresh glucagon)	time after which blood glucose increased back to hyperglycemia ([2]; 0.5 IU/kg insulin S.C.)	occurrence of hypoglycemia ([2]; 1 IU/kg insulin S.C.)	time to reach euglycemia post-injection ([2]; 1 IU/kg insulin S.C.)
glucagon	preserved	no detectable degradants			
insulin			3 h	fell even further below the hypoglycemic threshold	≤ 45 min
